Key:
[1] = biological target: endogenous vCD30 protein secreted during ECTV infection (Ectromelia virus (ECTV Naval.Cam)); assay: non-reducing SDS-PAGE and Western blot
[2] = biological target: His-tagged ECTV vCD30 protein (vCD30His) (Ectromelia virus (ECTV)); assay: non-reducing SDS-PAGE; purified vCD30His from baculovirus; data not shown

Row | Substance | stoichiometry N [1] | stoichiometry N [2]
1 | endogenous vCD30 protein secreted during ECTV infection (natural protein) | 3 | –
2 | His-tagged ECTV vCD30 protein (vCD30His) (natural protein) | – | 3

Reference: article PMC2664468
